Data: article PMC5937737, “RIT1 controls actin dynamics via complex formation with RAC1/CDC42 and PAK1” (PLoS Genetics, 2018)

Assays:
Assay in all cases: pull-down; in-vitro binding assay: GST fusion protein (1 μM) on glutathione agarose mixed with His-RIT1 (0.5 μM or a concentration series) loaded with GDP or GTPγS; 20 mM Tris-HCl, 100 mM NaCl, 0.1% Triton X-100, 1 mM DTT, 100 mM MgCl2; 30 min at room temperature; anti-His immunoblot
Conditions in all cases: both partners purified
[1] = target: T1, His-RIT1^WT (amino acids 1-201) (human, UniProt Q92963-1 1-201)
T1 construct: RIT1, human; loaded with GDP or non-hydrolyzable GTPγS before the assay; also called His-tagged RIT1; recombinant His-tagged RIT1 wildtype; source: E. coli BL21 (pET151/D-TOPO-RIT1^WT), purified
T1 sequence (Q92963 1-201): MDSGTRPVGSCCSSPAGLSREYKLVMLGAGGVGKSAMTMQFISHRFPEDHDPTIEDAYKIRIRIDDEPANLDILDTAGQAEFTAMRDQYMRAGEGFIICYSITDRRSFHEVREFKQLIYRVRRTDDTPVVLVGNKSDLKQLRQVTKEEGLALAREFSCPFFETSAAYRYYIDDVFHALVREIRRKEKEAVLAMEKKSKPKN

[2] = target: T2, His-RIT1^A57G (amino acids 1-201) (human, UniProt Q92963-1 1-201, A57G)
T2 construct: RIT1, human; Noonan syndrome-associated substitution in switch I; loaded with GDP or non-hydrolyzable GTPγS before the assay; also called RIT1 mutant p.A57G (recombinant); source: E. coli BL21 (pET151/D-TOPO-RIT1^A57G), purified
T2 sequence (Q92963 1-201 A57G): as the sequence (Q92963 1-201) above, with A57G counted along it

[3] = target: T3, His-RIT1^F82L (amino acids 1-201) (human, UniProt Q92963-1 1-201, F82L)
T3 construct: RIT1, human; Noonan syndrome-associated substitution in switch II; loaded with GDP or non-hydrolyzable GTPγS before the assay; also called RIT1 mutant p.F82L (recombinant); source: E. coli BL21 (pET151/D-TOPO-RIT1^F82L), purified
T3 sequence (Q92963 1-201 F82L): as the sequence (Q92963 1-201) above, with F82L counted along it

| binding result [1] | binding result [2] | binding result [3] | Binder |
| --- | --- | --- | --- |
| binds |  |  | GST-CDC42 (amino acids 1-178) (domain or fragment, CDC42, amino acids 1-178; loaded with GDP or GTPγS before the assay; source: E. coli BL21 (pGEX-4T3-CDC42), isolated, coupled to glutathione agarose beads) not shown |
| binds | binds | binds | GST-PAK[CRIB] (domain or fragment, UniProt Q13153 58-141, looked up, PAK1, CRIB domain, amino acids 58-141; source: E. coli BL21 (pGEX-2TK-PAK[CRIB]), isolated, coupled to glutathione agarose beads) ILPGDKTNKKKEKERPEISLPSDFEHTIHVGFDAVTGEFTGMPEQWARLLQTSNITKSEQKKNPQAVLDVLEFYNSKKTSNSQK |
